19 molecules from patent US20240376207A1 (JIANGSU HENGRUI PHARMACEUTICALS, published 2024) can be followed below.

Where a chain is given by its changes, count along the chain named.

Assay [1] deals with T1, human PVRIG expressed on cells (human, UniProt Q6DKI7 41-326).
T1 sequence (looked up): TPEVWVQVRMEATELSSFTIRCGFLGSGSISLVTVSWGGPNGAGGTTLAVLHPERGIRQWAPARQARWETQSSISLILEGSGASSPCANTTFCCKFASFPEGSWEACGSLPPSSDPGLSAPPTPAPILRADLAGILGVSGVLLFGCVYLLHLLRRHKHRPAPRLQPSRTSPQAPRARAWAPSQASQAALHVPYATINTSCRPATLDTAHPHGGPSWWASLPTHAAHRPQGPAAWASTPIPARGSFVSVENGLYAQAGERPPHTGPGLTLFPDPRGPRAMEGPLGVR
In words: cell-based or functional assay.

Assay [2] has as its target T1, human PVRIG expressed on cells. Description: FACS, HEK293 cells overexpressing target. The protocol:
(§1) The expression plasmid carrying human or cynomolgus monkey PVRIG gene sequence was transfected into HEK293 cells, and the over-expressing stable transfection monoclonal cell strain was obtained by antibiotic screening and infinite dilution. Overexpressing cells were seeded into a 96-well plate at 2×10⁵ cells/per well. The cells were centrifuged at 300 g for 5 min, the supernatant was then removed, 100 μL of the test antibody was added, and the mixture was incubated at 4° C. for 1 h. The mixture was centrifuged, the supernatant was removed, the plate was washed 3 times with 200 μL of wash buffer (PBS+2% FBS), and then 100 μL of an anti-human IgG secondary antibody (Invitrogen, A-11013) labeled with Alexa Fluor 488 diluted at 1:500 was added. The mixture was incubated at 4° C. for 1 h. The plate was centrifuged, and the supernatant was removed. The plate was washed 3 times with 200 μL of wash buffer (PBS+2% FBS). The cells were resuspended in 100 μL of PBS and tested on a flow cytometer (BD FACS Calibur or BD FACS Canto_II).
(§2) Binding of the humanized anti-PVRIG antibodies to human or cynomolgus monkey PVRIG was detected by using a flow cytometer according to the method of Example 5.
For orientation: In flow cytometry, cells or beads pass a laser one at a time.

Assay [3] addresses T2, cynomolgus monkey PVRIG expressed on cells (cynomolgus monkey, UniProt A0A2K5WVV8 1-322).
T2 construct: whole, on cells; also called Monkey PVRIG FACS; cells overexpressing cynomolgus monkey PVRIG
T2 sequence: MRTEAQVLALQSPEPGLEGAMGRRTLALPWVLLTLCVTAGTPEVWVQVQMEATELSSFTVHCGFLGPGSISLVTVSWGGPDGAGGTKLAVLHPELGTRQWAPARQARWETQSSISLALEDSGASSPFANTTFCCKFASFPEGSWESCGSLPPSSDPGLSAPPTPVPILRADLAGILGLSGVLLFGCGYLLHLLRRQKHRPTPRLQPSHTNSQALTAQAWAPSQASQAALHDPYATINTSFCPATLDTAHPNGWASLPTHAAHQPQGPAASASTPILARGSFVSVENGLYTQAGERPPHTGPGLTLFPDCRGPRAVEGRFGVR
In words: FACS, HEK293 cells overexpressing target. The protocol: as §1, §2

The target of assay [4] is T3, his-tagged human PVRIG (h-PVRIG-his) recombinant protein (human, UniProt Q6DKI7 41-171, limits assumed).
T3 construct: bought from Acrobiosystems; also called Human PVRIG-his; human PVRIG recombinant protein; not shown: his tag
T3 sequence (looked up): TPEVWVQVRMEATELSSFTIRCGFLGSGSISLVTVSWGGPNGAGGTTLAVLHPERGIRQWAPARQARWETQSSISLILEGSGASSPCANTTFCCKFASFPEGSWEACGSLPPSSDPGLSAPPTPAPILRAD
In words: BLI (Fortebio), antibody on Protein A sensor, 1:1 fit. On the procedure:
A Protein A biosensor (Fortebio, #18-5010) was immersed in 200 μL of KB buffer (PBS, pH 7.4, 0.02% tween-20, 0.1% BSA) for 60 s for the wetting treatment. Then, the anti-PVRIG antibody was diluted to 10 μg/mL with the KB buffer, and the sensor was immersed in 200 μL of the solution until the reading was 1.2 nm. The sensor was immersed in the KB buffer for 100 s to elute excess antibody. The his-tagged human PVRIG was diluted in a 2-fold gradient to 64 nM-4 nM with the KB buffer. The sensor was immersed in the solution for 300 s for binding. The sensor was immersed in the KB buffer for 600 s for dissociation. The data were fitted in a dynamic 1:1 binding mode.
The affinity of the humanized anti-PVRIG antibodies for human PVRIG was detected according to the method of Example 7. All the antibodies listed in the Table have high affinity for human PVRIG.
For orientation: BLI is a label-free optical method that tracks binding on a fibre tip over time.

The target in assay [5] is T1, human PVRIG expressed on cells. In words: cell-based or functional assay. This is another data set of the same source.

B1: humanized anti-PVRIG antibody 39H4 (antibody, human IgG4 S228P, F234A L235A, V domains shown)
VH: EVQLVESGGGLVQPGGSLRLSCAASGYTSRTDCMGWFRQAPGKGLEGVAHIDSDGIPRYVESVKGRFTISQDHAKNSLYLQMNSLRAEDTAVYYCVVGFKFGDYCAPNDWGQGTMVTVSS
What is called EC50 is the concentration needed to bring the measured effect to its halfway point. The term Kd denotes the concentration at which binding is half-saturated. As a reminder, the koff is the first-order rate constant of dissociation. A word on the kon: it is a measure of how fast the partners come together. Take B1: the “PVRIG reporter gene cell activity EC50” value in assay [1] was 0.094 nM. Also, in assay [2], the midpoint of the response, the EC50, lay at 0.005 nM. The EC50 in assay [3] is 0.006 nM. Further, in assay [4], the equilibrium dissociation constant (Kd) came out at 0.482 nM, the koff came out at 9.11e-05 s⁻¹ and the kon was determined as 189000 M⁻¹ s⁻¹.

B2: humanized anti-PVRIG antibody 39H1 (antibody, human IgG4 S228P, F234A L235A, V domains shown)
VH: B1 VH with Y27F, S29F, R30S, Q71R, H73N
As for B2, the “PVRIG reporter gene cell activity EC50” value in assay [1] came to 0.191 nM. Further, in assay [5], the “NK92 killing of K562, killing activity (%), 4 nM antibody” value (“NK92 killing … (%), 4 nM antibody” for short) was determined as 13.7%; the “NK92 killing of K562, killing activity (%), 20 nM antibody” value (from here on “NK92 killing … (%), 20 nM antibody”) stood at 17.7%; the “NK92 killing of K562, killing activity (%), 100 nM antibody” value (shortened to “NK92 killing … (%), 100 nM antibody”) worked out at 21.2%. Besides, it took 0.004 nM to reach a half-maximal effect in assay [2] (EC50). In assay [3], this molecule returned an EC50 of 0.251 nM. Further, in assay [4], the Kd is 3.28 nM, the dissociation rate constant (koff) worked out at 0.000865 s⁻¹ and the kon is 264000 M⁻¹ s⁻¹.

B3: humanized anti-PVRIG antibody 39H5 (antibody, human IgG4 S228P, F234A L235A, V domains shown)
VH: B1 VH with G44E, L45R
Take B3: the values for the EC50 in assay [2] and in assay [3] were 0.006 nM and 0.208 nM, respectively.

B4: humanized anti-PVRIG antibody 39H2 (antibody, human IgG4 S228P, F234A L235A, V domains shown)
VH: B1 VH with Y27F, Q71R, H73N
Regarding B4, the “PVRIG reporter gene cell activity EC50” value in assay [1] was found to be 0.074 nM. Moreover, in assay [5], the “NK92 killing … (%), 4 nM antibody” value was 15.3%; the “NK92 killing … (%), 20 nM antibody” value was found to be 18.7%; the “NK92 killing … (%), 100 nM antibody” value worked out at 19.7%. In assay [2], this molecule gave an EC50 of 0.006 nM. For the same molecule, in assay [3], the EC50 is 0.019 nM. Further, in assay [4], the Kd is 0.692 nM, the koff was determined as 0.000124 s⁻¹ and the kon worked out at 180000 M⁻¹ s⁻¹.

B5: humanized anti-PVRIG antibody 39H3 (antibody, human IgG4 S228P, F234A L235A, V domains shown)
VH: B1 VH with S29F, R30S
Regarding B5, the results for the EC50 in assay [2] and in assay [3] were 0.005 nM and 0.348 nM, respectively.

B6: humanized anti-PVRIG antibody 38H9 (antibody, human IgG4 S228P, F234A L235A, V domains shown)
VH: EVQLVESGGGVVQPGGSLRLSCAASPSTYGPSDMAWFRQAPGKGLEGVATISAAGRLTYYTDSVRGRFTISRDNSKNTMYLQMNSLRAEDTAVYYCAADFAGGSSLFADYKYWGQGTMVTVSS
On to B6, for which, in assay [2], the midpoint of the response, the EC50, lay at 0.068 nM.

B7: humanized anti-PVRIG antibody 38H7 (antibody, human IgG4 S228P, F234A L235A, V domains shown)
VH: B6 VH with G44Q, L45R
Regarding B7, the EC50 came out at 0.04 nM in assay [2] and 0.049 nM in assay [3].

B8: humanized anti-PVRIG antibody 38H8 (antibody, human IgG4 S228P, F234A L235A, V domains shown)
VH: B6 VH with M79L
With B8, it took 0.065 nM to reach a half-maximal effect in assay [2] (EC50).

B9: humanized anti-PVRIG antibody 38H2 (antibody, human IgG4 S228P, F234A L235A, V domains shown)
VH: B6 VH with P26G, S27F, Y29F, G30S, M79L
Consider B9, for which the EC50 in assay [2] worked out at 0.088 nM; in assay [3] it was 0.137 nM.

B10: humanized anti-PVRIG antibody 38H4 (antibody, human IgG4 S228P, F234A L235A, V domains shown)
VH: B6 VH with S27F, M79L
In the case of B10, the EC50 in assay [2] stood at 0.062 nM; in assay [3], 0.095 nM.

B11: humanized anti-PVRIG antibody 30H3 (antibody, human IgG4 S228P, F234A L235A, V domains shown)
VH: EVQLVESGGGLVQPGGSLRLSCAASGYSYSGDCMGWFRQAPGKGLDEGVATIDNAGRIKYADSVKGRFTISRDNAKNSLYLQMNSLRAEDTAVYYCAAGWTFGGQCSPADWGQGTQVTVSS
Consider B11, for which the “PVRIG reporter gene cell activity EC50” value in assay [1] was 0.078 nM. Moreover, in assay [2], the EC50 was determined as 0.004 nM. The molecule further displayed an EC50 in assay [3] of 0.003 nM. In assay [4], the Kd was 2.41 nM, the koff came out at 0.000358 s⁻¹ and the kon turned out to be 148000 M⁻¹ s⁻¹.

B12: humanized anti-PVRIG antibody 151H9 (antibody, human IgG4 S228P, F234A L235A, V domains shown)
VH: HVQLVESGGGLVQPGGSLRLSCVASASGFTYRPYCMAWFRQAPGKGLEAVAGIDIFGGTTYADSVKGRFTASRDNAGFSLYLQMNSLRAEDTAVYYCAAGDSPDGRCPPLGQGLNYWGQGTMVTVSS
On to B12, for which the EC50 in assay [2] turned out to be 0.004 nM; in assay [3] it was 3.94 nM.

B13: humanized anti-PVRIG antibody 151H7 (antibody, human IgG4 S228P, F234A L235A, V domains shown)
VH: B12 VH with G46E, L47R
For B13, the “PVRIG reporter gene cell activity EC50” value in assay [1] stood at 0.038 nM. In assay [5], the “NK92 killing … (%), 4 nM antibody” value came to 16.9%; the “NK92 killing … (%), 20 nM antibody” value amounted to 21%; the “NK92 killing … (%), 100 nM antibody” value was 18.4%. In assay [2], this molecule gave an EC50 of 0.002 nM. For the same molecule, the EC50 in assay [3] worked out at 0.467 nM. Moreover, in assay [4], the Kd came to 1.2 nM, the koff stood at 0.000188 s⁻¹ and the kon is 157000 M⁻¹ s⁻¹.

B14: humanized anti-PVRIG antibody 151H4 (antibody, human IgG4 S228P, F234A L235A, V domains shown)
VH: B12 VH with H1E, A71I, G77K, F78N
For the molecule B14, the “PVRIG reporter gene cell activity EC50” value in assay [1] was found to be 3.55 nM. In addition, the EC50 in assay [2] came out at 0.24 nM; in assay [3], 0.035 nM.

B15: humanized anti-PVRIG antibody 30H1 (antibody, human IgG4 S228P, F234A L235A, V domains shown)
VH: EVQLVESGGGLVQPGGSLRLSCAASGFTFSGDCMGWFRQAPGKGLEGVATIDNAGRIKYADSVKGRFTISRDNAKNSLYLQMNSLRAEDTAVYYCAAGWTFGGQCSPADWGQGTQVTVSS
Regarding B15, the figures for the EC50 in assay [2] and in assay [3] were 0.024 nM and 0.374 nM, respectively.

B16: humanized anti-PVRIG antibody 20H4 (antibody, human IgG4 S228P, F234A L235A, V domains shown)
VH: EVQLVESGGGLVQPGGSLRLSCAASGYTSRTDCMGWFRQAPGKGLEGVAHIDSDGIPRYVDSVKGRFTISQDHAKNSLYLQMNSLRAEDTAVYYCVVGFKFDEDYCAPNDWGQGTMVTVSS
On to B16, for which the EC50 in assay [2] came to 0.008 nM; in assay [3] it was 0.591 nM.

B17: humanized anti-PVRIG antibody 20H2 (antibody, human IgG4 S228P, F234A L235A, V domains shown)
VH: B16 VH with Y27F, Q71R, H73N
Take B17: the EC50 is 0.006 nM in assay [2] and 0.338 nM in assay [3].

B18: humanized anti-PVRIG antibody 20H1 (antibody, human IgG4 S228P, F234A L235A, V domains shown)
VH: B16 VH with Y27F, S29F, R30S, Q71R, H73N
Consider B18, for which the EC50 in assay [2] was 0.019 nM; in assay [3], 0.658 nM.

B19: humanized anti-PVRIG antibody 20H3 (antibody, human IgG4 S228P, F234A L235A, V domains shown)
VH: B16 VH with S29F, R30S
Regarding B19, the EC50 in assay [2] was 0.006 nM; in assay [3] it was 1.5 nM.
